Measured values taken from patent US11135246B2, “Peptides and combination of peptides for use in immunotherapy against leukemias and other cancers” (Immatics Biotechnologies GmbH, priority 2017, dated 2021).

The substances below were run against HLA-B*07:02 (Homo sapiens, UniProt P01889) (assay: MHC binding assay, UV-ligand exchange with β2m ELISA, HLA-B*07:02). Settings: binding to HLA-B*07:02, UV-ligand exchange.
Text: (§1) Candidate peptides for T cell based therapies according to the present invention were further tested for their MHC binding capacity (affinity). The individual peptide-MHC complexes were produced by UV-ligand exchange, where a UV-sensitive peptide is cleaved upon UV-irradiation, and exchanged with the peptide of interest as analyzed. Only peptide candidates that can effectively bind and stabilize the peptide-receptive MHC molecules prevent dissociation of the MHC complexes. To determine the yield of the exchange reaction, an ELISA was performed based on the detection of the light chain (β2m) of stabilized MHC complexes. The assay was performed as generally described in Rodenko et al. (Rodenko et al., 2006).
(§2) 96 well MAXISorp plates (NUNC) were coated over night with 2 ug/ml streptavidin in PBS at room temperature, washed 4× and blocked for 1 h at 37° C. in 2% BSA containing blocking buffer. Refolded HLA-A*02:01/MLA-001 monomers served as standards, covering the range of 15-500 ng/ml. Peptide-MHC monomers of the UV-exchange reaction were diluted 100-fold in blocking buffer. Samples were incubated for 1 h at 37° C., washed four times, incubated with 2 ug/ml HRP conjugated anti-β2m for 1 h at 37° C., washed again and detected with TMB solution that is stopped with […]. Absorption was measured at 450 nm. Candidate peptides that show a high exchange yield (preferably higher than 50%, most preferred higher than 75%) are generally preferred for a generation and production of antibodies or fragments thereof, and/or T cell receptors or fragments thereof, as they show sufficient avidity to the MHC molecules and prevent dissociation of the MHC complexes.

Substance | Peptide exchange (MHC class I binding score, peptide exchange yield)
101 (NPRYPNYMF; listed as Homo sapiens) [compound 101] | “+++” (>50 = +++)
102 (LPLSMEAKI; listed as Homo sapiens) [compound 102] | “++” (>20% = ++)
236 (RPSNKAPLL; listed as Homo sapiens) [compound 236] | “+++” (>50 = +++)
106 (KAFKWFSAL; listed as Homo sapiens) [compound 106] | “++” (>20% = ++)
251 (QPRLFTMDL; listed as Homo sapiens) [compound 251] | “+++” (>50 = +++)
243 (LPKVQSIQL; listed as Homo sapiens) [compound 243] | “++” (>20% = ++)
97 (LPFGKIPIL; listed as Homo sapiens) [compound 97] | “++” (>20% = ++)
79 (SPVPSHWMVA; listed as Homo sapiens) [compound 79] | “+++” (>50 = +++)
104 (RPMTPTQIGPSL; listed as Homo sapiens) [compound 104] | “+++” (>50 = +++)
95 (KPKAAKPKTA; listed as Homo sapiens) [compound 95] | “++” (>20% = ++)
237 (SPWLHAPSL; listed as Homo sapiens) [compound 237] | “++” (>20% = ++)
89 (FPETVNNLL; listed as Homo sapiens) [compound 89] | “++” (>20% = ++)
85 (IPVSHPVL; listed as Homo sapiens) [compound 85] | “++” (>20% = ++)
255 (YPGSDRIML; listed as Homo sapiens) [compound 255] | “++” (>20% = ++)
83 (IPVSRPIL; listed as Homo sapiens) [compound 83] | “+++” (>50 = +++)

These substances were tested against HLA-B*44:02 (Homo sapiens, UniProt P01889, A223V/A65T/A93T/A95T/D201E/D98Y/E176V/E187L/E204Q/E69K/G107R/H137Y/K202T/L105A/L119I/N104T/N87E/Q56L/Q94N/R106L/R155S/R180D/S101N/S121R/S35A/S48T/T118I/V36M/W191S/Y140D/Y91S) (assay: MHC binding assay, UV-ligand exchange with β2m ELISA, HLA-B*44:02). Settings: binding to HLA-B*44:02, UV-ligand exchange.
Text: as §1, §2

Substance | Peptide exchange (MHC class I binding score, peptide exchange yield)
260 (AEIGEGAYGKVF; listed as Homo sapiens) [compound 260] | “+++” (>50 = +++)
162 (DEAQARAAF; listed as Homo sapiens) [compound 162] | “++” (>20% = ++)
132 (GELPAVRDL; listed as Homo sapiens) [compound 132] | “++” (>20% = ++)
177 (QENMQIQSF; listed as Homo sapiens) [compound 177] | “+++” (>50 = +++)
150 (EEVTDRSQL; listed as Homo sapiens) [compound 150] | “++” (>20% = ++)
165 (VELDLQRSV; listed as Homo sapiens) [compound 165] | “++” (>20% = ++)
133 (AEHNFVAKA; listed as Homo sapiens) [compound 133] | “+++” (>50 = +++)
135 (NEIKVYITF; listed as Homo sapiens) [compound 135] | “+++” (>50 = +++)
140 (EYDLKWEF; listed as Homo sapiens) [compound 140] | “++” (>20% = ++)
158 (GENEDNRIGL; listed as Homo sapiens) [compound 158] | “++” (>20% = ++)
275 (TENPLTKLL; listed as Homo sapiens) [compound 275] | “++++” (>75% = ++++)
257 (KEFFFVKVF; listed as Homo sapiens) [compound 257] | “+++” (>50 = +++)
178 (REYEHYWTEL; listed as Homo sapiens) [compound 178] | “+++” (>50 = +++)
159 (GELLGRQSF; listed as Homo sapiens) [compound 159] | “+++” (>50 = +++)
180 (EEPAFNVSY; listed as Homo sapiens) [compound 180] | “++” (>20% = ++)
157 (VEIAEAIQL; listed as Homo sapiens) [compound 157] | “+++” (>50 = +++)

Substance | Peptide exchange (MHC class I binding score, peptide exchange yield)
126 (EENKPGIVY; listed as Homo sapiens) [compound 126] | “++” (>20% = ++)
270 (AESEDLAVHL; listed as Homo sapiens) [compound 270] | “++” (>20% = ++)
169 (EENGEVKEL; listed as Homo sapiens) [compound 169] | “++” (>20% = ++)
130 (EEEHGKGREY; listed as Homo sapiens) [compound 130] | “++” (>20% = ++)
272 (KEFELRSSW; listed as Homo sapiens) [compound 272] | “+++” (>50 = +++)
127 (TEYPVFVY; listed as Homo sapiens) [compound 127] | “+” (>10% = +)
185 (SEGDNVESW; listed as Homo sapiens) [compound 185] | “+++” (>50 = +++)
171 (SEDLAVHLY; listed as Homo sapiens) [compound 171] | “++” (>20% = ++)
268 (NEDKGTKAW; listed as Homo sapiens) [compound 268] | “++” (>20% = ++)
152 (AELLAKELY; listed as Homo sapiens) [compound 152] | “++” (>20% = ++)
259 (EENTLVQNY; listed as Homo sapiens) [compound 259] | “++” (>20% = ++)
136 (AEYKGRVTL; listed as Homo sapiens) [compound 136] | “++++” (>75% = ++++)
267 (KEKFPINGW; listed as Homo sapiens) [compound 267] | “+++” (>50 = +++)
138 (SQAPAARAF; listed as Homo sapiens) [compound 138] | “++” (>20% = ++)
134 (SEYADTHYF; listed as Homo sapiens) [compound 134] | “+++” (>50 = +++)
